Source: patent US20130129746A1 (GlaxoSmithKline, published 2013)
Numbering of substitutions follows the chain as printed.

B1: DOM7h-14 (other)
VL: DIQMTQSPSSLSASVGDRVTITCRASQWIGSQLSWYQQKPGKAPKLLIMWRSSLQSGVPSRFSGSGSGTDFTLTISSLQPEDFATYYCAQGAALPRTFGQGTKVEIKR
notes: Vk dAb (AlbudAb)
B2: DOM7h-14-10 (other)
VL: B1 VL with A92L, A93R, L94H, R96K
notes: Vk dAb (AlbudAb)
B3: Rat Serum Albumin (other, UniProt P02770 25-608, looked up)
chain: EAHKSEIAHRFKDLGEQHFKGLVLIAFSQYLQKCPYEEHIKLVQEVTDFAKTCVADENAENCDKSIHTLFGDKLCAIPKLRDNYGELADCCAKQEPERNECFLQHKDDNPNLPPFQRPEAEAMCTSFQENPTSFLGHYLHEVARRHPYFYAPELLYYAEKYNEVLTQCCTESDKAACLTPKLDAVKEKALVAAVRQRMKCSSMQRFGERAFKAWAVARMSQRFPNAEFAEITKLATDVTKINKECCHGDLLECADDRAELAKYMCENQATISSKLQACCDKPVLQKSQCLAEIEHDNIPADLPSIAADFVEDKEVCKNYAEAKDVFLGTFLYEYSRRHPDYSVSLLLRLAKKYEATLEKCCAEGDPPACYGTVLAEFQPLVEEPKNLVKTNCELYEKLGEYGFQNAVLVRYTQKAPQVSTPTLVEAARNLGRVGTKCCTLPEAQRLPCVEDYLSAILNRLCVLHEKTPVSEKVTKCCSGSLVERRPCFSALTVDETYVPKEFKAETFTFHSDICTLPDKEKQIKKQTALAELVKHKPKATEDQLKTVMGDFAQFVDKCCKAADKDNCFATEGPNLVARSKEALA
notes: mature; purified protein on CM5 chips for BIAcore; also called RSA; rat SA
B4: DOM7h-11-12/DOM1m-21-23 fusion DMS number 5516 (other)
chain: EVQLLESGGGLVQPGGSLRLSCAASGFTFNRYSMGWLRQAPGKGLEWVSRIDSYGRGTYYEDPVKGRFSISRDNSKNTLYLQMNSLRAEDTAVYYCAKISQFGSNAFDYWGQGTQVTVSSASTSGPSDIQMTQSPSSLSASVGDRVTITCRASRPIGTMLSWYQQKPGKAPKLLILFGSRLQSGVPSRFSGSGSGTDFTLTISSLQPEDFATYYCAQAGTHPTTFGQGTKVEIKR
notes: also called DMS5516
B5: DOM7h-11-15/DOM1m-21-23 fusion DMS number 5517 (other)
chain: B4 chain with F177A, G178F
notes: also called DMS5517
B6: DOM7h14-10/G4SC-NCE fusion (other)
chain: DIQMTQSPSSLSASVGDRVTITCRASQWIGSQLSWYQQKPGKAPKLLIMWRSSLQSGVPSRFSGSGSGTDFTLTISSLQPEDFATYYCAQGLRHPKTFGQGTKVEIKRGGGGSC
modifications: C-terminal Cys of the GGGGSC spacer conjugated by maleimide through a PEG 4 linker to the NCE (small molecule ADAMTS-4 inhibitor)
notes: AlbudAb-drug conjugate; also called DOM7h14-10 NCE-GGGGSC; DOM7h-14-10 GGGGSC
B7: DOM7h14-10/TVAAPSC fusion (NCE conjugate) (other)
chain: DIQMTQSPSSLSASVGDRVTITCRASQWIGSQLSWYQQKPGKAPKLLIMWRSSLQSGVPSRFSGSGSGTDFTLTISSLQPEDFATYYCAQGLRHPKTFGQGTKVEIKRTVAAPSC
modifications: C-terminal Cys of the TVAAPSC spacer conjugated by maleimide through a PEG 4 linker to the NCE (small molecule ADAMTS-4 inhibitor)
notes: AlbudAb-drug conjugate; also called DOM7h14-10 NCE-TVAAPSC
B8: DOM7h-11 (other)
VL: DIQMTQSPSSLSASVGDRVTITCRASRPIGTTLSWYQQKPGKAPKLLIWFGSRLQSGVPSRFSGSGSGTDFTLTISSLQPEDFATYYCAQAGTHPTTFGQGTKVEIKR
B9: DOM7h-11-3 (other)
VL: B8 VL with W49L, F50W, G51N
B10: DOM7h-11-15 (other)
VL: B8 VL with T32M, W49L, F50A, G51F

Key:
mouse serum albumin [1] = biological target: T1, mouse serum albumin (mouse, UniProt P07724 25-608); experiment: BIAcore SPR;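 on koff: purified dAbs run at 1 µM, 500 nM and 50 nM over human, cynomolgus, mouse and rat serum albumin in BIAcore binding measurements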
T1 construct: mature; purified protein on CM5 chips for BIAcore; also called MSA; mouse SA
T1 sequence (P07724 25-608): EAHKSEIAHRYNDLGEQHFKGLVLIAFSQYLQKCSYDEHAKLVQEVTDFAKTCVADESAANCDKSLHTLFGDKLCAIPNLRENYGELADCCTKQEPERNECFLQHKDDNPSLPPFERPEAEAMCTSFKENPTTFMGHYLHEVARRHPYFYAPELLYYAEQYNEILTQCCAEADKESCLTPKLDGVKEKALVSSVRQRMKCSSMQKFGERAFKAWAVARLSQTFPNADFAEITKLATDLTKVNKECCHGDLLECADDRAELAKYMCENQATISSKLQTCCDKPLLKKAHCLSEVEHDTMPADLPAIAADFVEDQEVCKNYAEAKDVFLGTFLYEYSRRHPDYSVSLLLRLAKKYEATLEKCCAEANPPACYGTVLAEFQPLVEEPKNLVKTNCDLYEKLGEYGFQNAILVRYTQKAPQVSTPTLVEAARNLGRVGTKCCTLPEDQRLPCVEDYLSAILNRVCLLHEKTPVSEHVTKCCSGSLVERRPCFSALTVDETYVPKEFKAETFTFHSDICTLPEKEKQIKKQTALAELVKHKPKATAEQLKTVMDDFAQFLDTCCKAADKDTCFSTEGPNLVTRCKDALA
Protocol: (§1) Binding to HSA, CSA, MSA and RSA by BIAcore was confirmed using purified protein at 3 concentrations 1 μM, 500 nM and 50 nM.

Human Serum Albumin [2] = biological target: T2, Human Serum Albumin (human, UniProt P02768 25-609); experiment: BIAcore SPR;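 on koff: purified dAbs run at 1 µM, 500 nM and 50 nM over human, cynomolgus, mouse and rat serum albumin in BIAcore binding measurements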
T2 construct: mature; purified protein on CM5 chips for BIAcore; also called HSA; human SA
Protocol: as §1

[3] = biological target: T3, Cynomolgus monkey Serum Albumin (Cynomolgus monkey, UniProt A2V9Z4 25-608); experiment: BIAcore SPR;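 on koff: purified dAbs run at 1 µM, 500 nM and 50 nM over human, cynomolgus, mouse and rat serum albumin in BIAcore binding measurements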
T3 construct: mature; purified protein on CM5 chips for BIAcore; also called CSA; cyno SA
T3 sequence (A2V9Z4 25-608): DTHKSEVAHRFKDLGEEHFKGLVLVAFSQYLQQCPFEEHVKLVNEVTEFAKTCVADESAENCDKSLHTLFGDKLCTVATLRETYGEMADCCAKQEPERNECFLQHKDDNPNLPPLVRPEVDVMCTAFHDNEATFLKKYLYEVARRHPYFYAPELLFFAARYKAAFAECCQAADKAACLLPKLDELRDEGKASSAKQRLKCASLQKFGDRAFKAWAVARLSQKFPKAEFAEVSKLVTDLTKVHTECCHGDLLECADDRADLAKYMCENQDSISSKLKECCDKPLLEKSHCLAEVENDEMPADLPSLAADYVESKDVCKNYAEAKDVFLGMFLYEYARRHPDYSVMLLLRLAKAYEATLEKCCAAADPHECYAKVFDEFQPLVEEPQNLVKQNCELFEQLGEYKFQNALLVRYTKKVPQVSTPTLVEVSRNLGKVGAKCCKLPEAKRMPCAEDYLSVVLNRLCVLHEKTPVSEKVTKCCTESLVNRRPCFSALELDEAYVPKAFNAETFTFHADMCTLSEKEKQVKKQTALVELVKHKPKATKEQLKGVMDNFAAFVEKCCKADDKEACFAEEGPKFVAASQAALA
Protocol: as §1

Rat Serum Albumin [4] = biological target: B3; experiment: BIAcore SPR;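 on koff: purified dAbs run at 1 µM, 500 nM and 50 nM over human, cynomolgus, mouse and rat serum albumin in BIAcore binding measurements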
Protocol: as §1

Rat Serum Albumin [5] = biological target: B3; experiment: Albumin KD column of the PK table (repeats Table 6; row marked historical data); Albumin KD column of PK Table 10; historical data
[6] = biological target: T3, Cynomolgus monkey Serum Albumin; experiment: Albumin KD column of the PK table (repeats Table 6; row marked historical data)
[7] = biological target: T3, Cynomolgus monkey Serum Albumin; experiment: Albumin KD column of the PK table (repeats Table 6)
Rat Serum Albumin [8] = biological target: B3; experiment: as above
[9] = biological target: T4, DOM7h-11/Exendin-4 fusion DMS number 7142; experiment: BIAcore SPR (Albumin KD column)
T4 construct: exendin-4, (G4S)3 linker, AlbudAb; also called DMS7142

[10] = biological target: T5, DOM7h-14/Exendin-4 fusion DMS number 7138; experiment: BIAcore SPR (Albumin KD column)
T5 construct: exendin-4, (G4S)3 linker, AlbudAb; also called DMS7138

[11] = biological target: T6, DOM7h-11-15/Exendin-4 fusion DMS number 7143; experiment: BIAcore SPR (Albumin KD column)
T6 construct: exendin-4, (G4S)3 linker, AlbudAb; also called DMS7143

[12] = biological target: T7, DOM7h-14-18/Exendin-4 fusion DMS number 7140; experiment: BIAcore SPR (Albumin KD column)
T7 construct: exendin-4, (G4S)3 linker, AlbudAb; also called DMS7140

[13] = biological target: T8, DOM7h-14-10/Exendin-4 fusion DMS number 7139; experiment: BIAcore SPR (Albumin KD column)
T8 construct: exendin-4, (G4S)3 linker, AlbudAb; also called DMS7139

[14] = biological target: T9, DOM7h-14-19/Exendin-4 fusion DMS number 7141; experiment: BIAcore SPR (Albumin KD column)
T9 construct: exendin-4, (G4S)3 linker, AlbudAb; also called DMS7141

[15] = biological target: T10, DOM7h-11-12/Exendin-4 fusion DMS number 7147; experiment: BIAcore SPR (Albumin KD column)
T10 construct: exendin-4, (G4S)3 linker, AlbudAb; also called DMS7147

Rat Serum Albumin [16] = biological target: B3; experiment: BIAcore SPR, DOM1m-21-23 fusion against unfused AlbudAb
Rat Serum Albumin [17] = biological target: B3; experiment: BIAcore SPR (Albumin KD column)
[18] = biological target: T3, Cynomolgus monkey Serum Albumin; experiment: Albumin KD column of the PK table (row marked historical data; differs from Table 6); historical data (*), not the Table 6 run
mouse serum albumin [19] = biological target: T1, mouse serum albumin; experiment: Albumin KD column of the PK table (repeats Table 6)
mouse serum albumin [20] = biological target: T1, mouse serum albumin; experiment: BIAcore SPR, second independent experiment;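 further: purified domain antibodies run as analytes at 50 nM, 500 nM and 1 µM over HSA, CSA, MSA and RSA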
Protocol: as §1

Human Serum Albumin [21] = biological target: T2, Human Serum Albumin; experiment: BIAcore SPR, second independent experiment;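 further: purified domain antibodies run as analytes at 50 nM, 500 nM and 1 µM over HSA, CSA, MSA and RSA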
Protocol: as §1

[22] = biological target: T3, Cynomolgus monkey Serum Albumin; experiment: BIAcore SPR, second independent experiment;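 further: purified domain antibodies run as analytes at 50 nM, 500 nM and 1 µM over HSA, CSA, MSA and RSA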
Protocol: as §1

Rat Serum Albumin [23] = biological target: B3; experiment: BIAcore SPR, second independent experiment;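 further: purified domain antibodies run as analytes at 50 nM, 500 nM and 1 µM over HSA, CSA, MSA and RSA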
Protocol: as §1

Rat Serum Albumin [24] = biological target: B3; experiment: BIAcore SPR, second independent experiment; second, independent SPR experiment (bracketed values)
Protocol: as §1

mouse serum albumin [25] = biological target: T1, mouse serum albumin; experiment: BIAcore SPR; remark: listed apart in the source
Description: (§2) MSA antigen was obtained from Sigma (essentially fatty acid free, ˜99% (agarose gel electrophoresis), lyophilized powder Cat. No. A3559) and CSA was purified from Cynomolgus serum albumin using prometic blue resin (Amersham).

Human Serum Albumin [26] = biological target: T2, Human Serum Albumin; experiment: BIAcore SPR; remark: listed apart in the source
Description: as §2

[27] = biological target: T3, Cynomolgus monkey Serum Albumin; experiment: BIAcore SPR; remark: listed apart in the source
Description: as §2

Rat Serum Albumin [28] = biological target: B3; experiment: BIAcore SPR; remark: listed apart in the source
Description: as §2

Binder	Kd (mouse serum albumin [1]) [nM]	koff (mouse serum albumin [1]) [s⁻¹]	kon (mouse serum albumin [1]) [M⁻¹ s⁻¹]	Kd (Human Serum Albumin [2]) [nM]	koff (Human Serum Albumin [2]) [s⁻¹]	kon (Human Serum Albumin [2]) [M⁻¹ s⁻¹]	Kd [3] [nM]	koff [3] [s⁻¹]	kon [3] [M⁻¹ s⁻¹]	Kd (Rat Serum Albumin [4]) [nM]	koff (Rat Serum Albumin [4]) [s⁻¹]	kon (Rat Serum Albumin [4]) [M⁻¹ s⁻¹]	Kd (Rat Serum Albumin [8]) [nM]	further results
B1	12	0.0482	4.1e+06	33	0.0417	1.43e+06	66	0.0965	1.5e+06	60	0.209	4e+06		Kd (Rat Serum Albumin [5]): 60 nM; Kd [6]: 66 nM
B2	30	0.0341	1.29e+06	12	0.0139	1.5e+06	9	0.0115	1.6e+06	4	0.00964	4.57e+06	4	Kd [7]: 9 nM
B3														Kd [9]: 24000 nM; Kd [10]: 2400 nM; Kd [11]: 130 nM; Kd [12]: 16000 nM; Kd [13]: 19 nM; Kd [14]: 17000 nM; Kd [15]: 1400 nM
B4														fold decrease in affinity to RSA compared to the unfused AlbudAb (Rat Serum Albumin [16]): 2 fold
B5														fold decrease in affinity to RSA compared to the unfused AlbudAb (Rat Serum Albumin [16]): 2 fold
B6														Kd (Rat Serum Albumin [17]): 62 nM
B7														Kd (Rat Serum Albumin [17]): 35 nM
B8	5000	0.9					1000	0.682	800000	2100	0.1	48000	2100	Kd [18]: 3300 nM; Kd (mouse serum albumin [19]): 5000 nM
B9	≥ 10000			32	0.016	650000	670	0.096	290000	10000				Kd (mouse serum albumin [20]): 36000 nM; koff (mouse serum albumin [20]): 0.612 s⁻¹; kon (mouse serum albumin [20]): 16700 M⁻¹ s⁻¹; Kd (Human Serum Albumin [21]): 130 nM; koff (Human Serum Albumin [21]): 0.0235 s⁻¹; kon (Human Serum Albumin [21]): 186000 M⁻¹ s⁻¹; Kd [22]: 200 nM; koff [22]: 0.15 s⁻¹; kon [22]: 726000 M⁻¹ s⁻¹; Kd (Rat Serum Albumin [23]): 88000 nM; kon (Rat Serum Albumin [23]): 8110 M⁻¹ s⁻¹; koff (Rat Serum Albumin [24]): 0.718 s⁻¹
B10	10	0.0094	1.1e+06	1	0.00184	2e+06	3	0.00557		20	0.021	1.1e+06	20	Kd (mouse serum albumin [25]): 10.3 nM; Kd (Human Serum Albumin [26]): 1.4 nM; Kd [27]: 5.3 nM; Kd (Rat Serum Albumin [28]): 21 nM; Kd (mouse serum albumin [19]): 10 nM; Kd [7]: 3 nM
